Source: patent US20230338589A1

T1: interferon gamma (IFN-γ), murine, recombinant (mouse) (UniProt P01580)
T1 sequence (looked up): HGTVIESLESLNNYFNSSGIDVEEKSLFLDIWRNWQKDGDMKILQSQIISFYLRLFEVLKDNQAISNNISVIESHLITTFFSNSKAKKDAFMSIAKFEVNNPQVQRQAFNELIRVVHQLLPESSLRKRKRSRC


What was measured:
[1] = biological target: T1, interferon gamma (IFN-γ), murine, recombinant (mouse); assay: Octet (BLI) analysis of binding affinity; format not stated
[2] = biological target: T1, interferon gamma (IFN-γ), murine, recombinant (mouse); assay: cell-based or functional assay
[3] = biological target: T1, interferon gamma (IFN-γ), murine, recombinant (mouse); assay: radioligand cell assay: TUBO cells preincubated with recombinant IFN-γ (10 ng/mL), washed, then incubated with tracer 1 h at 37 C; acid-wash fraction read by gamma counter; background without IFN-γ 1.13 ± 0.28%

| Kd [1] [nM] | internalization (% internalized activity) in TUBO cells preincubated with IFN-γ [2] [%] | surface binding (% of activity) [3] [%] | Molecule |
| --- | --- | --- | --- |
| 37.9 |  |  | anti-IFN-γ diabody (homodimer of the single chain Fv derived from clone AN18, produced in CHO cells) |
|  | 3.93 | 13.6 | ^89Zr-anti-IFN-γ labeled-antibody conjugate (AN-18 conjugated to p-SCN-Bn-desferrioxamine and labeled with ^89Zr) (antibody, rat IgG1, V domains shown, p-SCN-Bn-Desferrioxamine (DFO) conjugated to the antibody (Ab:DFO 1:5), chelating ^89Zr; sites not stated) VH: QVQLKESGPGLVQPSQTLSLTCTVSGFSLDSYNVHWVRQPPGKGLEWMGRMKYNGDTSYNSALKSRLRISRDTSKNQVFLKMNSLQTDDTGTYYCTRDWHYGYPSPYFEFWGQGVMVTVSS VL: DVQMTQSPSYLAASPGESVSISCKASKNINTYLAWYQEKPGKTNKLLIYSGSTLQSGTPSRFSGSGSGTDFTLTIRSLEPEDFAVYYCQQHNEYPLTFGSGTKLEVKR |
